For 2 substances, maximum standard curve signal and mean signal (standard curve) results are on record in US20120220489A1.

Assay [1] deals with ERK1 (p42) active (phospho), human, Active Motif 31 152 (human) (UniProt P27361). Description: RPA, competition: +free Erk1 peptide 1000 nM.
The target in assay [2] is ERK1 (p44) active (GST tagged), human, Invitrogen PV 3311 (human) (UniProt P27361). Description: RPA, competition: +free Erk1 peptide 1000 nM.
Assay [3] deals with ERK1 (p44) inactive (GST tagged), human, Invitrogen PV 3312 (human) (UniProt P27361). Description: RPA, competition: +free Erk1 peptide 1000 nM.
The target of assay [4] is ERK1 (p44), human, Cell Signaling Technology 7416 (human) (UniProt P27361). Kind of assay: RPA, competition: +free Erk1 peptide 1000 nM.
For assay [5], the target named is ERK2 (p42), human, Biosource PHO 0104 (human) (UniProt P28482). Description: RPA, competition: +free Erk1 peptide 1000 nM.
For assay [6], the target named is Erk1-BSA 2.7x peptide-protein conjugate (human; bovine). Description: RPA, competition: +free Erk1 peptide 1000 nM.
Assay [7] deals with Histone H3 recombinant protein, calf, Roche 11 034 758 001 (calf) (UniProt P68432). Kind of assay: RPA, competition: +free Erk1 peptide 1000 nM.
The target in assay [8] is Histone H3 recombinant protein, human, Upstate 14-494 (human) (UniProt P68431). Description: RPA, competition: +free Erk1 peptide 1000 nM.
The target of assay [9] is Histone H3-BSA 2.7x peptide-protein conjugate (bovine). Kind of assay: RPA, competition: +free Erk1 peptide 1000 nM.
Assay [10] concerns the target pErk1/2-BSA 2.7x peptide-protein conjugate (human; bovine). Description: RPA, competition: +free Erk1 peptide 1000 nM.
Assay [11] concerns the target pRb recombinant protein, human, Active Motif 31 128 (human) (UniProt P06400). Kind of assay: RPA, competition: +free Erk1 peptide 1000 nM.
In assay [12] the target is pRb-BSA 1x peptide-protein conjugate (bovine). Description: RPA, competition: +free Erk1 peptide 1000 nM.
Assay [13] deals with pErk1/2-BSA 2.7x peptide-protein conjugate (human; bovine). Kind of assay: RPA, 8 point dilution series of the peptide standard in buffer, assay 1.
The target is the same in assay [14]. Kind of assay: RPA, 8 point dilution series of the peptide standard in buffer, assay 2.
Assay [15] concerns the target ERK1 (p42) active (phospho), human, Active Motif 31 152 (human) (UniProt P27361). Kind of assay: RPA, competition: +free pErk1/2 peptide 10 nM.
In assay [16] the target is ERK1 (p44) active (GST tagged), human, Invitrogen PV 3311 (human) (UniProt P27361). Kind of assay: RPA, competition: +free pErk1/2 peptide 10 nM.
Assay [17] deals with ERK1 (p44) inactive (GST tagged), human, Invitrogen PV 3312 (human) (UniProt P27361). Description: RPA, competition: +free pErk1/2 peptide 10 nM.
In assay [18] the target is ERK1 (p44), human, Cell Signaling Technology 7416 (human) (UniProt P27361). Description: RPA, competition: +free pErk1/2 peptide 10 nM.
Assay [19] has as its target ERK2 (p42), human, Biosource PHO 0104 (human) (UniProt P28482). Kind of assay: RPA, competition: +free pErk1/2 peptide 10 nM.
Assay [20] deals with Erk1-BSA 2.7x peptide-protein conjugate (human; bovine). Kind of assay: RPA, competition: +free pErk1/2 peptide 10 nM.
Assay [21] has as its target Histone H3 recombinant protein, calf, Roche 11 034 758 001 (calf) (UniProt P68432). Description: RPA, competition: +free pErk1/2 peptide 10 nM.
For assay [22], the target named is Histone H3 recombinant protein, human, Upstate 14-494 (human) (UniProt P68431). Kind of assay: RPA, competition: +free pErk1/2 peptide 10 nM.
In assay [23] the target is Histone H3-BSA 2.7x peptide-protein conjugate (bovine). Description: RPA, competition: +free pErk1/2 peptide 10 nM.
The target in assay [24] is pErk1/2-BSA 2.7x peptide-protein conjugate (human; bovine). Description: RPA, competition: +free pErk1/2 peptide 10 nM.
The target in assay [25] is pRb recombinant protein, human, Active Motif 31 128 (human) (UniProt P06400). Kind of assay: RPA, competition: +free pErk1/2 peptide 10 nM.
In assay [26] the target is pRb-BSA 1x peptide-protein conjugate (bovine). Kind of assay: RPA, competition: +free pErk1/2 peptide 10 nM.
Assay [27] addresses ERK1 (p42) active (phospho), human, Active Motif 31 152 (human) (UniProt P27361). Description: RPA, competition: +free pErk1/2 peptide 100 nM.
Assay [28] deals with ERK1 (p44) active (GST tagged), human, Invitrogen PV 3311 (human) (UniProt P27361). Description: RPA, competition: +free pErk1/2 peptide 100 nM.
Assay [29] addresses ERK1 (p44), human, Cell Signaling Technology 7416 (human) (UniProt P27361). Description: RPA, competition: +free pErk1/2 peptide 100 nM.
The target in assay [30] is ERK2 (p42), human, Biosource PHO 0104 (human) (UniProt P28482). Description: RPA, competition: +free pErk1/2 peptide 100 nM.
Assay [31] deals with Erk1-BSA 2.7x peptide-protein conjugate (human; bovine). Description: RPA, competition: +free pErk1/2 peptide 100 nM.
Assay [32] deals with Histone H3 recombinant protein, calf, Roche 11 034 758 001 (calf) (UniProt P68432). Kind of assay: RPA, competition: +free pErk1/2 peptide 100 nM.
Assay [33] has as its target Histone H3 recombinant protein, human, Upstate 14-494 (human) (UniProt P68431). Description: RPA, competition: +free pErk1/2 peptide 100 nM.
Assay [34] has as its target Histone H3-BSA 2.7x peptide-protein conjugate (bovine). Description: RPA, competition: +free pErk1/2 peptide 100 nM.
The target in assay [35] is pErk1/2-BSA 2.7x peptide-protein conjugate (human; bovine). Kind of assay: RPA, competition: +free pErk1/2 peptide 100 nM.
In assay [36] the target is pRb recombinant protein, human, Active Motif 31 128 (human) (UniProt P06400). Kind of assay: RPA, competition: +free pErk1/2 peptide 100 nM.

Chain of UniProt P06400 (P06400 whole entry): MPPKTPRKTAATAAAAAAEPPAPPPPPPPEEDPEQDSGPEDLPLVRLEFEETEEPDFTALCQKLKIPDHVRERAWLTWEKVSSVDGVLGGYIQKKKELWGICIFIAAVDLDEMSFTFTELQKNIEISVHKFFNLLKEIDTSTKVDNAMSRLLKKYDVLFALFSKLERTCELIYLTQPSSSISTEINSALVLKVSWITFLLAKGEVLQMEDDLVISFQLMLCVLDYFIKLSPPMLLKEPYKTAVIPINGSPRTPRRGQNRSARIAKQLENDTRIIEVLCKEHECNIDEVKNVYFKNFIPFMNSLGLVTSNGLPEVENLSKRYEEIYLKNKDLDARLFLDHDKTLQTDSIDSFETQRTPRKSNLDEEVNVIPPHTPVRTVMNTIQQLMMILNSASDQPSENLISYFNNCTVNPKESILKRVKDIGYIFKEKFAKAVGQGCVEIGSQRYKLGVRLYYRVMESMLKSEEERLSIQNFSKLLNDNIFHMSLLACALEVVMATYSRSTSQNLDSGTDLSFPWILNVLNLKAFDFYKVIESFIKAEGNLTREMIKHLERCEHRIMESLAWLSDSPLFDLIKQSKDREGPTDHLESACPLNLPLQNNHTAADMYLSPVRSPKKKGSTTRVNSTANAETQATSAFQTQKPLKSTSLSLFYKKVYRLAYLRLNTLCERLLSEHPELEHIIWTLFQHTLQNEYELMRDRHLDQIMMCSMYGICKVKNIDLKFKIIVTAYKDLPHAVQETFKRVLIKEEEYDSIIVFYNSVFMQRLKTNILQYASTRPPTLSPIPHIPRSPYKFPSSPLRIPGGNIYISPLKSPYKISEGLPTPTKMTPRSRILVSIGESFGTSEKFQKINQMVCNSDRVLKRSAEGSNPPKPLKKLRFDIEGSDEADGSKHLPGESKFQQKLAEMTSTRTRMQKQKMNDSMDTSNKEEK
Chain of UniProt P28482 (P28482 2-360 limits assumed): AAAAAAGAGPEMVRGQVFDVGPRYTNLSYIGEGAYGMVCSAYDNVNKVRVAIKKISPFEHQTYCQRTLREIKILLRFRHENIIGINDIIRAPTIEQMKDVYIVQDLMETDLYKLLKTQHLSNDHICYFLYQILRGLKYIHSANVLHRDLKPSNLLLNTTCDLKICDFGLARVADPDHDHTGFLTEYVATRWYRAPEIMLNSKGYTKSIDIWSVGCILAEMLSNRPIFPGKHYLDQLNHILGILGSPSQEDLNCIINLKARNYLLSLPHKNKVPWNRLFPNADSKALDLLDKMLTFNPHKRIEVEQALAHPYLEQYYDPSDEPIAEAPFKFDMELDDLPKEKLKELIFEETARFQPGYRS
Chain of Erk1-BSA 2.7x peptide-protein conjugate (human; bovine) (peptide, as listed by the source limits assumed, chain 1 of 2): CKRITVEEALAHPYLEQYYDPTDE
Chain of Erk1-BSA 2.7x peptide-protein conjugate (human; bovine) (P02769 25-607 limits assumed, chain 2 of 2): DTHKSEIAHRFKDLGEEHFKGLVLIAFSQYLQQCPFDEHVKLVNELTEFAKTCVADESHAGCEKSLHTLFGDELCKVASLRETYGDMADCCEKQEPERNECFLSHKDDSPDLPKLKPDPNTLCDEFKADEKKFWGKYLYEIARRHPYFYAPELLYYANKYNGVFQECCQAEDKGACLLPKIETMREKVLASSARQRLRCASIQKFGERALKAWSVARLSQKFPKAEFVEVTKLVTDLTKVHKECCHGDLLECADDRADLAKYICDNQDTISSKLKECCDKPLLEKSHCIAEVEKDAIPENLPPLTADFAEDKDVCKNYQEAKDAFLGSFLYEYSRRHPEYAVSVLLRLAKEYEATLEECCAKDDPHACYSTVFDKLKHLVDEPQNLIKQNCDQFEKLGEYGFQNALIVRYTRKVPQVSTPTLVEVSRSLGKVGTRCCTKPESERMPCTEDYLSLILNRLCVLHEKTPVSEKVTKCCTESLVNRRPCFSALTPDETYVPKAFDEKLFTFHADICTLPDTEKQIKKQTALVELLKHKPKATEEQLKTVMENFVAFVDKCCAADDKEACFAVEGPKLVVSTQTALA
Chain of pErk1/2-BSA 2.7x peptide-protein conjugate (human; bovine) (P02769 25-607 limits assumed): as the sequence (P02769 25-607 limits assumed, chain 2 of 2) above
Chain of Histone H3-BSA 2.7x peptide-protein conjugate (bovine) (P02769 25-607 limits assumed): as the sequence (P02769 25-607 limits assumed, chain 2 of 2) above
Chain of pRb-BSA 1x peptide-protein conjugate (bovine) (P02769 25-607 limits assumed): as the sequence (P02769 25-607 limits assumed, chain 2 of 2) above

On to “p44/42 MAPK (Erk1/2) antibody, Biosource 44-654G”, for which the maximum standard curve signal was 0.01 RFI in assay [1]; 0.02 RFI in [2]; 0.02 RFI in [3]; below 0.01 RFI in [4]; 0.01 RFI in assay [5]; 0.14 RFI in [6]. In addition, the maximum standard curve signal is 0.01 RFI in assay [7]; 0.01 RFI in assay [8]; 0.02 RFI in [9]; 0.01 RFI in assay [10]; 0.01 RFI in assay [11]; 0.01 RFI in assay [12]. The mean signal (standard curve) in assay [13] stood at 0.01 RFI; in assay [14] it was 0.008 RFI.

With “p44/42 MAPK phospho (pERK1/2) Thr202/Tyr204 antibody, Cell Signaling Technology #9101”, the maximum standard curve signal in assay [15] was 0.01 RFI; in assay [16], 0.05 RFI; in assay [17], 0.01 RFI; in [18] it was 0.01 RFI; in assay [19], 0.01 RFI; in assay [20] it was 0.01 RFI. Besides, the maximum standard curve signal is 0.01 RFI in [21]; 0.01 RFI in assay [22]; 0.1 RFI in [23]; 1.05 RFI in assay [24]; 0.01 RFI in assay [25]; 0.01 RFI in assay [26]. Moreover, the maximum standard curve signal in [27] was 0.01 RFI; in assay [28] it was 0.01 RFI; in assay [29], below 0.01 RFI; in assay [30], 0.01 RFI; in [31], 0.02 RFI; in [32], 0.01 RFI. The maximum standard curve signal is below 0.01 RFI in assay [33], 0.1 RFI in assay [34], 0.45 RFI in [35] and 0.01 RFI in assay [36].
